# From US9988424 (DUKE UNIVERSITY, dated 2018)
# Residue numbers refer to the chain shown, from its start.
# T1: SIV CPZ US-1 gp140CF (SIVcpz)
# T1 construct: also called US-1 SIVCPZ gp140CF
# T1 chain: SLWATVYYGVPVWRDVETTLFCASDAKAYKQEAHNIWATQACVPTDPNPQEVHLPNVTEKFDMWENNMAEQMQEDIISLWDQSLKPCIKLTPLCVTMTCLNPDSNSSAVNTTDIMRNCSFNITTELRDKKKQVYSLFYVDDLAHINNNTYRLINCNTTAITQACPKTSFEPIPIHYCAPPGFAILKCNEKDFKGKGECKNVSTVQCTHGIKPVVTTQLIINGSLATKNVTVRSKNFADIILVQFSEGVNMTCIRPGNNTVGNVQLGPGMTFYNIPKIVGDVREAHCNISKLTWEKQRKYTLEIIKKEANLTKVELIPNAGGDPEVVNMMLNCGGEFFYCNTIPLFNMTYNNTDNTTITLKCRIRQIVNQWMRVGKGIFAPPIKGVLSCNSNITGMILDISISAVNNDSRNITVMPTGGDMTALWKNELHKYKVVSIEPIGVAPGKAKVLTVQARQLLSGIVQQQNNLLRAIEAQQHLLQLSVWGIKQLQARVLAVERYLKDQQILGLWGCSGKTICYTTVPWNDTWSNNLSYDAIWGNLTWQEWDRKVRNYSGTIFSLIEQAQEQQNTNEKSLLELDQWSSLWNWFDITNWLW
# B1: CH01 RUA 1 (antibody, V domains shown)
# VH: EVQLVESGGGVVRPGGSLRLSCAASGFTFDDYGMSWVRQAPGKGLEWVSGINWNGGSTGYADSVKGRFTISRDNAKNSLYLQMNSLRAEDTALYYCARGTDYTIDDQGIRYQGSGTFWYFDLWGRGTLVTVSS
# VL: not shown
# B2: CH01 RUA 2 (antibody, V domains shown)
# VH: B1 VH with R110L
# VL: not shown
# B3: HG107 (antibody, V domains shown)
# VH: EVQLVESGGDLVQPGRSLRLSCAASGFTFDDYAMHWVRQAPGKGLEWISGISGNSGSRGYADSVKGRFTISRDNAKNSLYLQMNSLRAEDTALYYCATDGDRSGTTPLDHWGQGTRVTVSS
# VL: SYELTQPPSVSVSPGQTARITCSGDALPKNYAYWYQQKSGQAPALVIYEDSKRPSGIPERFSGSSSGTMATLTISGAQVEDEADYYCYSTDSSGTPSFGTGTKVTVL
# notes: also called mAb HG107
# B4: HG120 (antibody, V domains shown)
# VH: EVQLVESGGGLVQPGGSLRLSCAASGFTFSSYAMRWVRQAPGKGLEWVSGISGSGGSTYYADSVKGRFTISRDNSKITLYLQMDSLRVEDTAVYYCATAPLSYDSSTDYWGQGTLVTVSS
# VL: B3 VL with N30K, A44V, T95N, S97R, T100R, V104L
# notes: also called mAb HG120
# Tests used:
# [1] = target: AE.A244 V1V2 Tags (HIV-1); test: ELISA OD405nm, antibody at 33, 11.1 and 1.2 ug/ml
# [2] = target: AE.A244 V1V2 Tags (HIV-1); test: ELISA OD405nm, bar chart, antibody concentration not given
# [3] = target: T1, SIV CPZ US-1 gp140CF; test: ELISA
# [4] = target: C.1086 gp120 (HIV-1); test: ELISA
# [5] = target: T2, AE.97CNG2XF gp140CF (HIV-1); test: ELISA
# T2 construct: also called E.97CNGX2F gp140CF
# [6] = target: T3, B.HXB/BAL gp140CFI (HIV-1, UniProt P04578 33-680); test: ELISA
# T3 construct: also called B.HxB/Ba gp140 CFI
# [7] = target: T4, AE.92TH023 gp120 gD+ (HIV-1); test: ELISA
# T4 construct: domain: gp120; also called AE.92TH023 gp12 gD+
# [8] = target: B.9021 gp140C (HIV-1); test: ELISA
# [9] = target: T5, AE.A244 gD+ gp120 (HIV-1); test: ELISA
# T5 construct: domain: gp120; also called AE.A244 gp120gD+
binder,measurement,setting,value
B1,binding result,[1],binds
B2,binding result,[2],binds
B3,binding result,[3],no binding
same,EC50,[4],0.03 µg/mL
same,EC50,[5],0.055 µg/mL
same,binding result,[6],no binding
same,EC50,[7],0.04 µg/mL
same,binding result,[8],no binding
same,EC50,[9],0.03 µg/mL
B4,binding result,[3],no binding
same,EC50,[4],0.02 µg/mL
same,EC50,[5],0.06 µg/mL
same,binding result,[6],no binding
same,EC50,[7],0.02 µg/mL
same,binding result,[8],no binding
same,EC50,[9],0.02 µg/mL
